# Measurements published in article PMC8560819, “Dynamic interactions and Ca^2+-binding modulate the holdase-type chaperone activity of S100B preventing tau aggregation and seeding” (Nature Communications, 2021).
# B1: S100B (natural protein)
# chain: MSELEKAMVALIDVFHQYSGREGDKHKLKKSELKELINNELSHFLEEIKEQEVVDKVMETLDNDGDGECDFQEFMAFVAMVTTACHEFFEHE
# notes: the crystal structure PDB 2H61 and the assignment BMRB 27199 were used for it; Used unlabelled or uniformly 15N-labelled (M9 medium with 15N-ammonium chloride); also called S100B-Ca^2+; apo S100B
# How the values were obtained:
# S100B = biological target: B1; assay: NMR titration; 100 µM 15N-S100B titrated with 50 to 750 µM tau peptide; 50 mM Hepes pH 6.8, 1.25 mM CaCl2, 298 K; Kd from chemical shift perturbation of 11 resonances; conditions: both partners purified
# [1] = biological target: the molecule itself; assay: SEC-SAXS; Superdex 200 (3.2/300), 50 mM Tris-HCl, 100 mM NaCl, 2% glycerol, 2 mM CaCl2, pH 7.9; S100B alone, S100B mixed with equimolar K18, or K18 alone, 12–13 mg/ml
Binder,Kd (S100B),stoichiometry N [1]
"Ac-REPKKVAVVRTP-NH2 (12-residue tau peptide from the proline-rich region, holds Thr231; also called RO; source: synthetic peptide, bought: Genecust (France)) [R0 peptide]",519 µM,
"Ac-PGGGSVQIVYKP-NH2 (12-residue tau peptide within K18 that holds PHF6 (306-VQIVYK-311); source: synthetic peptide, bought: Genecust (France)) [R3 peptide]",266 µM,
B1,,2
"Ac-PGGGKVQIINKK-NH2 (12-residue tau peptide within K18 that holds PHF6* (275-VQIINK-280); source: synthetic peptide, bought: Genecust (France)) [R2 peptide]",163 µM,
